In publication PMC3815138, “Dynamic Interplay between the Periplasmic and Transmembrane Domains of GspL and GspM in the Type II Secretion System” (PLoS ONE, 2013):

Legend:
[1] = target: T1, GST-OutL (Dickeya dadantii, UniProt E0SLF6 1-400); assay: pull-down; GST-Out derivatives immobilized on Glutathione Sepharose as baits; His-OutC purified by nickel affinity as prey, incubated 1 h; 1% Triton X-100, 15°C; five washes; immunoblot; details: both partners purified
T1 construct: OutL (GspL), type II secretion system of Dickeya dadantii; also called full-length OutL carrying a GST-tag; source: E. coli BL21(DE3), pGEX-6P-3 plasmid; immobilized on Glutathione Sepharose
T1 sequence: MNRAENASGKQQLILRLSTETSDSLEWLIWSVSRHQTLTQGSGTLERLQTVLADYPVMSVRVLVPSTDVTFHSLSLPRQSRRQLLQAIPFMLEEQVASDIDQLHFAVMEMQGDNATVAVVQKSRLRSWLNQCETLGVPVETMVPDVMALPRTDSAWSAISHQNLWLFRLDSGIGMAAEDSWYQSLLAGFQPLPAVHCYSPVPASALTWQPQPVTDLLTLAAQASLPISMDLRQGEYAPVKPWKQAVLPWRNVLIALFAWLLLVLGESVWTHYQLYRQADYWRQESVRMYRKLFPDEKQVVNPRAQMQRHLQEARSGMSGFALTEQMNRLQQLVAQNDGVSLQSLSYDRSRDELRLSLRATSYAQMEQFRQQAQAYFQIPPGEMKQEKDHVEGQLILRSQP

[2] = target: T2, GST-OutC (Dickeya dadantii, UniProt Q01564 1-272); assay: as above; details: both partners purified
T2 construct: OutC (GspC), type II secretion system of Dickeya dadantii; also called full-length OutC carrying a GST-tag; source: E. coli BL21(DE3), pGEX-6P-3 plasmid; immobilized on Glutathione Sepharose

B1: His-OutC (natural protein)
chain: not shown
notes: OutC (GspC), bitopic inner membrane component of the type II secretion system of Dickeya dadantii; also called GspC; full-length OutC; source: E. coli BL21(DE3), pET20b(+) plasmid
binding result [1]: binds
binding result [2]: binds
